One assay deals with FcεR1α (Homo sapiens). Nature of the assay: Surface plasmon resonance (BIAcore biosensor) inhibition of IgE-Fc binding to immobilized soluble FcεR1α. Conditions: peptide 2.5 mM; IgE-Fc 5 nM, association monitored for 6 minutes, 24° C. The protocol:
The kinetics of binding of IgE Fc to soluble FcεR1α were determined using a BIAcore biosensor (Pharmacia Biosensor AB, Uppsala, Sweden). The FcεR1α was immobilized via primary amine groups to a carboxymethylated dextran-coated CM5 sensor chip, at a concentration of 85 μg/ml in 10mM sodium acetate buffer pH 4.5, using N-hydroxy-succinimide and N-ethyl-N'-(3-[…])-carbodiimide.Free sites were blocked with 1M ethanolamine-hydrochloride pH 8.5.
The association of IgE-Fc at a concentration of 5nM was monitored for 6 minutes in the presence and absence of a derivative of the D amino acid peptide #1 at various concentrations (at 24° C.) The derivative of D amino acid peptide #1 is identical to D amino acid #1, which is described in Example 3, except it is biotinylated.
Background: Surface plasmon resonance follows binding to a sensor surface in real time, without labels.

Another assay has as its target labelled myeloma IgE. Nature of the assay: competition: peptide titrated against 5 nM iodinated myeloma IgE binding to transfected CHO cells, gamma counting.

The IC50 is the point on the concentration scale where inhibition reaches its midpoint. Low values mean inhibition by little substance, high ones a need for much substance.

Bridges are numbered along the chain shown (N, C = ends). Where no end group is shown, it is not given here. [ ]: non-standard residue; d: D form.

FcεR1α (Homo sapiens), sequence (P01854 104-428 isoform P01854-1 limits assumed): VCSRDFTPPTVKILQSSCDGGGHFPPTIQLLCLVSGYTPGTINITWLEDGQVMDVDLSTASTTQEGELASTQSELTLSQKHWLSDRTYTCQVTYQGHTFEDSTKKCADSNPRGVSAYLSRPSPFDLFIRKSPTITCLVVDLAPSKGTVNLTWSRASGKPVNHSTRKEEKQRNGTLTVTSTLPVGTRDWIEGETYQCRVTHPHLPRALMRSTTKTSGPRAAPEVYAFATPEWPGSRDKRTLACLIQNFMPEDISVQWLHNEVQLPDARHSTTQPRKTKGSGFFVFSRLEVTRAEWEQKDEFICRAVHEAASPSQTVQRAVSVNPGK

As for “derivative of D amino acid peptide #1: identical to D amino acid peptide #1, which is described in Example 3, except it is biotinylated (CIYYKDGEALKY[dC]; disulfide 1-13; also: biotinylated (site not given here))”, the “inhibition of IgE-Fc binding” value with FcεR1α (Homo sapiens) is on record as “virtually complete inhibition”.

B1: D amino acid peptide #1 (peptide)
peptide: CIYYKDGEALKY[dC]
modifications: disulfide 1-13
In the assay with labelled myeloma IgE, B1 had an IC50 of 5.14 µM.

The values are drawn from patent publication US5962634A, “IgE antagonists” (Thomas Jefferson University, priority 1997, dated 1999).
